Usually Kd stands for the constant that tells how readily two partners part at equilibrium. The low end stands for tighter binding, the high end for weaker binding. As usually defined, the koff is the first-order rate constant of dissociation. A low value points to a long-lived complex. The term kon denotes the rate constant with which the complex forms. Lower therefore signals slow association.

The values below come from article PMC3338918.

In assay [1] the target is T1, human PlGF-2 (human) (UniProt P49763).
T1 sequence: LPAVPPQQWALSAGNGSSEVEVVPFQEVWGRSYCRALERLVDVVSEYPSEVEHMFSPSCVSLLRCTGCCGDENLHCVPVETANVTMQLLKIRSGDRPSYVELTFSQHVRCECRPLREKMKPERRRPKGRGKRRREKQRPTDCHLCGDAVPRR

Assay [2] has as its target human VEGF-A121 (human).
In assay [3] the target is human VEGF-A165 (human).
In assay [4] the target is T2, murine PlGF-2 (mouse) (UniProt P49764).
T2 sequence: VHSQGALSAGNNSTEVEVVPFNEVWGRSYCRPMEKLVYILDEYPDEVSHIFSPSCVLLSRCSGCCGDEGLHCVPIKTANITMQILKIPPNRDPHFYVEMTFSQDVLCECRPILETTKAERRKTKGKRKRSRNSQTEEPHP

In assay [5] the target is human VEGF-A165 (human). This is another data set of the same source.
Assay [6] addresses T1, human PlGF-2 (human). This is another data set of the same source.
In assay [7] the target is T2, murine PlGF-2 (mouse). The source holds these as a separate data set.
In assay [8] the target is human VEGFR1-hFc (human) (UniProt P17948).
Assay [9] addresses VEGF Trap (aflibercept) (human). Kind of assay: KinExA solution equilibrium assay; KinExA 3000, room temperature (25°C); VEGF Trap (1–50 pM) equilibrated 10–96 h with varying ligand; unbound inhibitor captured on VEGF-A165-coupled Azlactone beads and detected with Cy5 anti-human IgG; one-site homogeneous binding model. For orientation: A kinetic exclusion assay measures how much of one partner remains free in solution.

Assay [10] shares this target. Kind of assay: SPR; Biacore 3000, CM5 chip, 25°C, HBS-T (10 mM Hepes, 150 mM NaCl, 3.4 mM EDTA, 0.05% polysorbate 20, pH 7.4); VEGF Trap or receptor-Fc captured at low density on amine-coupled Protein A, ligands injected (1.0–0.062 nM VEGF-A, 2.5–0.156 nM VEGF-B(10-108), 5.0–0.078 nM PlGF); kd of VEGF-A ligands by the 'fixed kd' procedure on a Biacore 2000 (~2–3 h); KD = kd/ka.

The target of assay [11] is human VEGFR1-hFc (human) (UniProt P17948). The description is as above.
The target in assay [12] is human VEGFR2-hFc (human) (UniProt P35968). Described as above.
human VEGFR2-hFc (human), sequence (P35968 20-764): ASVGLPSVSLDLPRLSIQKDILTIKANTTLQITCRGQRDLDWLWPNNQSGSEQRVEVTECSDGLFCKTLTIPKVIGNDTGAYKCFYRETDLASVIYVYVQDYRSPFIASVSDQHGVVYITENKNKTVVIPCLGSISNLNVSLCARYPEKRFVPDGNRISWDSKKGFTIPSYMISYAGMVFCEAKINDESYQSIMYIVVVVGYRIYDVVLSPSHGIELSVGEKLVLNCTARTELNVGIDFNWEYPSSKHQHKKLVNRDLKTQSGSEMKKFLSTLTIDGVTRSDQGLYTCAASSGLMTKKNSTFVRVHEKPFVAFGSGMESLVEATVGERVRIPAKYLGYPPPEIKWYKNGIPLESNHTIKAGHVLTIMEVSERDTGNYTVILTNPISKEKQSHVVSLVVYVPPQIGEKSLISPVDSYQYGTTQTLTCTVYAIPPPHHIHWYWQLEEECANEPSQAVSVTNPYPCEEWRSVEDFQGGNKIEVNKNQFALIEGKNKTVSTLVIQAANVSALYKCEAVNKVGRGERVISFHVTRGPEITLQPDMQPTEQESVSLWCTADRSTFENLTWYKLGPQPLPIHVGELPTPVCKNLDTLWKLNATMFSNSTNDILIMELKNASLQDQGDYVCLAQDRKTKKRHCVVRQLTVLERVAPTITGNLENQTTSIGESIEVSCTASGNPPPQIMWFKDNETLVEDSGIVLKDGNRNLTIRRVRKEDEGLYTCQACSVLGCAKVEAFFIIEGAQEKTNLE

VEGF Trap (aflibercept) (Fc fusion), sequence (chain): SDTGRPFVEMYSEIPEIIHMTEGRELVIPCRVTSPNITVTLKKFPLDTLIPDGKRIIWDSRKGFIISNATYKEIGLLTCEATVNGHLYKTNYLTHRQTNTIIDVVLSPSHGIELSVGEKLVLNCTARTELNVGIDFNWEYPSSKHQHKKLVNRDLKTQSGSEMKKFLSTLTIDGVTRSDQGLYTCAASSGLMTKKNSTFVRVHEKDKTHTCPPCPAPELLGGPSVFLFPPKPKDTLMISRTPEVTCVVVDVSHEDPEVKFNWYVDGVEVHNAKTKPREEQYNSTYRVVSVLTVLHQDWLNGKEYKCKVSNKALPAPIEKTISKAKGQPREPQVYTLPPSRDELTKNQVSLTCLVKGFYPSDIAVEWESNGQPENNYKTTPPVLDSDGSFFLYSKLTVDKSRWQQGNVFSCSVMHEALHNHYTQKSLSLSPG
human VEGFR1-hFc (human), sequence (P17948 27-758): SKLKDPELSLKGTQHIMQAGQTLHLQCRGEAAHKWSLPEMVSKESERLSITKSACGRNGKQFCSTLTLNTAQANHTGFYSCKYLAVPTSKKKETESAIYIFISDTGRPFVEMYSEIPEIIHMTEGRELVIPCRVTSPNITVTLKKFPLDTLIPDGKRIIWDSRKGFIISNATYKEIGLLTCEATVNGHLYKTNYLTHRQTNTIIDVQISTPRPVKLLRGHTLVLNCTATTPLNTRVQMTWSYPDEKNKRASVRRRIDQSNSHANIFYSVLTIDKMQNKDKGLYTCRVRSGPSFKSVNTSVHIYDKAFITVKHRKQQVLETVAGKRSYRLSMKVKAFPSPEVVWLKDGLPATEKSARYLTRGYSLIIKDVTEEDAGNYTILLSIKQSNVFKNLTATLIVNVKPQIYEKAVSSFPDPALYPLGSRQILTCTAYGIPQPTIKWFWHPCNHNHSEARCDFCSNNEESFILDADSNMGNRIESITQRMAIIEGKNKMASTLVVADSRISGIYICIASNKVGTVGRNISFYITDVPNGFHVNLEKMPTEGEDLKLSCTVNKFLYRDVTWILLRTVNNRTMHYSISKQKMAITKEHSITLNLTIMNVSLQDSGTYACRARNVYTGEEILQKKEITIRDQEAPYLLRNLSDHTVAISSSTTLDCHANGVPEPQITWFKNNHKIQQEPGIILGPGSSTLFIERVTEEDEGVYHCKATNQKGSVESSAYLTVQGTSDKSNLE

The substance VEGF Trap (aflibercept) (Fc fusion) gave an IC50 of blocking luciferase activity induced by 40 pM hPlGF-2 in the HEK293/VEGFR1 reporter cell line (blocks hPlGF-2 with VEGFR1) in assay [1] of 2890 pM. In assay [2], the IC50 of blocking luciferase activity induced by 20 pM hVEGF-A121 in the HEK293/VEGFR1 reporter cell line (blocks VEGF-A121 with VEGFR1) turned out to be 15 pM. In assay [3], this substance returned an IC50 of blocking luciferase activity induced by 20 pM hVEGF-A165 in the HEK293/VEGFR1 reporter cell line (blocks VEGF-A165 with VEGFR1) of 16 pM. In addition, the IC50 of blocking luciferase activity induced by 20 pM mPlGF-2 in the HEK293/VEGFR1 reporter cell line (blocks mPlGF-2 with VEGFR1) in assay [4] is 104 pM. Also, the reduction of HUVEC migration induced by 130 pM VEGF-A165 (modified Boyden chamber; inhibitor 0.013–13 nM), at a 1:1 molar ratio of VEGF Trap and VEGF-A165 in [5] was 90%. The block of HUVEC migration induced by human PlGF-2 (7.1 nM) by a 100-fold excess of VEGF Trap (modified Boyden chamber) in [6] was 80%. In [7], this substance yielded a block of HUVEC migration induced by mouse PlGF-2 (3.5 nM) by a 100-fold excess of VEGF Trap (modified Boyden chamber) of 80%.
For human VEGF-A121 (ligand), in assay [8], the EC50 of luciferase activation in HEK293/VEGFR1 cells (dose response, 0.022 pM to 4.0 nM) came to 13 pM. Moreover, the Kd in [9] amounted to 0.18 pM. Also, in assay [10], the Kd was 0.36 pM, the koff came to 1.35e-05 s⁻¹ and the kon was determined as 3.75e+07 M⁻¹ s⁻¹.
Turning to “human VEGF-B(10-108) (domain or fragment)”, the equilibrium dissociation constant (Kd) in assay [9] is 17.5 pM. Moreover, in assay [10], the equilibrium dissociation constant (Kd) was 1.92 pM, the dissociation rate constant (koff) was 6.74e-05 s⁻¹ and the on-rate (kon) came out at 3.52e+07 M⁻¹ s⁻¹.
Regarding human VEGF-A165 (ligand), the EC50 of luciferase activation in HEK293/VEGFR1 cells (dose response, 0.022 pM to 4.0 nM) in assay [8] came to 17 pM. Moreover, the Kd in assay [9] came out at 0.66 pM; in assay [10] it was 0.49 pM; in assay [11] it was 9.33 pM; in assay [12], 88.8 pM. For the same substance, the figures for the off-rate (koff) in assay [10], in assay [11] and in [12] were 2.01e-05 s⁻¹, 0.00028 s⁻¹ and 0.00135 s⁻¹, respectively. Also, the on-rate constant (kon) worked out at 4.1e+07 M⁻¹ s⁻¹ in assay [10], 3e+07 M⁻¹ s⁻¹ in [11] and 1.52e+07 M⁻¹ s⁻¹ in assay [12].
